Key:
Test in all cases: alkaline phosphatase fusion protein binding assay
[1] = biological target: Notch1, transfected into HEK293 cells and immunoprecipitated on protein G beads (UniProt Q07008 19-2531)
[2] = biological target: Notch2 (UniProt O35516 26-2473)
[3] = biological target: Notch3 (UniProt Q61982 40-2318)
[4] = biological target: Notch4 (UniProt P31695 21-1964)
Sequence of Notch4 (P31695 21-1964): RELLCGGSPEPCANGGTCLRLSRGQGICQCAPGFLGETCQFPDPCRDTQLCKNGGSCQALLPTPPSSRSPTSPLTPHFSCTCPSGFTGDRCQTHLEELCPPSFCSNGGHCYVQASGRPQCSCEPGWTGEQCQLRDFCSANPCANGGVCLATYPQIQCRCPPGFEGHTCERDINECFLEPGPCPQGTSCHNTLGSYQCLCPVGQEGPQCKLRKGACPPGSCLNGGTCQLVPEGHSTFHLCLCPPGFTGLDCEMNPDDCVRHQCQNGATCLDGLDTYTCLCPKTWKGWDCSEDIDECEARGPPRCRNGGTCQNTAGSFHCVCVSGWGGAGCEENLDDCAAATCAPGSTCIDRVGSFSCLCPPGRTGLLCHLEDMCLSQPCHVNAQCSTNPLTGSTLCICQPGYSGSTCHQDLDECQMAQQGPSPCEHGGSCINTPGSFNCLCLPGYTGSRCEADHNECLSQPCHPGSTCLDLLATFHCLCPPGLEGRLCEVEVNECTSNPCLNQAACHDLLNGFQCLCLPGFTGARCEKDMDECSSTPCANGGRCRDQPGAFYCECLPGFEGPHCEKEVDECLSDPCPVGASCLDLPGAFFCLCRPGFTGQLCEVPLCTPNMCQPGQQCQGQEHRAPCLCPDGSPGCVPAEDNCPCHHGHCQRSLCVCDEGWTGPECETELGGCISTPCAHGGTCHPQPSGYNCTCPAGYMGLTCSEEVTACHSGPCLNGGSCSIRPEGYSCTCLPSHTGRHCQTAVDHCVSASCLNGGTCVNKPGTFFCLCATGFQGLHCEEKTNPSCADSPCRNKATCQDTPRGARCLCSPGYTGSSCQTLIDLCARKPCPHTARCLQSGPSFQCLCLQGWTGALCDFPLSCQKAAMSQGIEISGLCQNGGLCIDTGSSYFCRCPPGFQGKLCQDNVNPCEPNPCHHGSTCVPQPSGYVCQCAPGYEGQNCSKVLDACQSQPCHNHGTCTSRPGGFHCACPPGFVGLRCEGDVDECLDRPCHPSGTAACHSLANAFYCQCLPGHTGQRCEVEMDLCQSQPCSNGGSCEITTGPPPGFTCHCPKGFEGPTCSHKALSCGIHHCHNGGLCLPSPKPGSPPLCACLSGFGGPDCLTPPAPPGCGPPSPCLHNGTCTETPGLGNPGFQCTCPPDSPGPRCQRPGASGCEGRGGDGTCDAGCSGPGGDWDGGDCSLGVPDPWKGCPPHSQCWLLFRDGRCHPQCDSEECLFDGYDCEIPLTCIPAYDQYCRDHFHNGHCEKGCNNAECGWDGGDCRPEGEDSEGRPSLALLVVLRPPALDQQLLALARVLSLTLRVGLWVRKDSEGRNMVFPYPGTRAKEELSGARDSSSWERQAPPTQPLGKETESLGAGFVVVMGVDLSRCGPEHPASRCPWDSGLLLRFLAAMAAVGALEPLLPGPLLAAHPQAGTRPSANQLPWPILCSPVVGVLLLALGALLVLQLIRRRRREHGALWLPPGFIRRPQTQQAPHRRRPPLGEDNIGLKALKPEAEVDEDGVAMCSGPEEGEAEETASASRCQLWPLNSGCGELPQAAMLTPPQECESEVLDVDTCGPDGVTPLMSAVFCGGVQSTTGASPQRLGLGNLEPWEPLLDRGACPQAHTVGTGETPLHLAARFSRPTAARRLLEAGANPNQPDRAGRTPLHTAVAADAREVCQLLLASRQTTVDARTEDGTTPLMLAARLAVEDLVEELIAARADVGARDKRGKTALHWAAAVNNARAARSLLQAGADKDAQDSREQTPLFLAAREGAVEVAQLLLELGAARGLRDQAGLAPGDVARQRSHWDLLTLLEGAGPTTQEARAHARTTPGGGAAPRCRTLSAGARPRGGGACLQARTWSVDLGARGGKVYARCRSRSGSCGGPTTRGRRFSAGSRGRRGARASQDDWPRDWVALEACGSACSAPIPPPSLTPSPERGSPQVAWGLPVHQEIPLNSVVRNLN

Sequence of Notch1, transfected into HEK293 cells and immunoprecipitated on protein G beads (Q07008 19-2531): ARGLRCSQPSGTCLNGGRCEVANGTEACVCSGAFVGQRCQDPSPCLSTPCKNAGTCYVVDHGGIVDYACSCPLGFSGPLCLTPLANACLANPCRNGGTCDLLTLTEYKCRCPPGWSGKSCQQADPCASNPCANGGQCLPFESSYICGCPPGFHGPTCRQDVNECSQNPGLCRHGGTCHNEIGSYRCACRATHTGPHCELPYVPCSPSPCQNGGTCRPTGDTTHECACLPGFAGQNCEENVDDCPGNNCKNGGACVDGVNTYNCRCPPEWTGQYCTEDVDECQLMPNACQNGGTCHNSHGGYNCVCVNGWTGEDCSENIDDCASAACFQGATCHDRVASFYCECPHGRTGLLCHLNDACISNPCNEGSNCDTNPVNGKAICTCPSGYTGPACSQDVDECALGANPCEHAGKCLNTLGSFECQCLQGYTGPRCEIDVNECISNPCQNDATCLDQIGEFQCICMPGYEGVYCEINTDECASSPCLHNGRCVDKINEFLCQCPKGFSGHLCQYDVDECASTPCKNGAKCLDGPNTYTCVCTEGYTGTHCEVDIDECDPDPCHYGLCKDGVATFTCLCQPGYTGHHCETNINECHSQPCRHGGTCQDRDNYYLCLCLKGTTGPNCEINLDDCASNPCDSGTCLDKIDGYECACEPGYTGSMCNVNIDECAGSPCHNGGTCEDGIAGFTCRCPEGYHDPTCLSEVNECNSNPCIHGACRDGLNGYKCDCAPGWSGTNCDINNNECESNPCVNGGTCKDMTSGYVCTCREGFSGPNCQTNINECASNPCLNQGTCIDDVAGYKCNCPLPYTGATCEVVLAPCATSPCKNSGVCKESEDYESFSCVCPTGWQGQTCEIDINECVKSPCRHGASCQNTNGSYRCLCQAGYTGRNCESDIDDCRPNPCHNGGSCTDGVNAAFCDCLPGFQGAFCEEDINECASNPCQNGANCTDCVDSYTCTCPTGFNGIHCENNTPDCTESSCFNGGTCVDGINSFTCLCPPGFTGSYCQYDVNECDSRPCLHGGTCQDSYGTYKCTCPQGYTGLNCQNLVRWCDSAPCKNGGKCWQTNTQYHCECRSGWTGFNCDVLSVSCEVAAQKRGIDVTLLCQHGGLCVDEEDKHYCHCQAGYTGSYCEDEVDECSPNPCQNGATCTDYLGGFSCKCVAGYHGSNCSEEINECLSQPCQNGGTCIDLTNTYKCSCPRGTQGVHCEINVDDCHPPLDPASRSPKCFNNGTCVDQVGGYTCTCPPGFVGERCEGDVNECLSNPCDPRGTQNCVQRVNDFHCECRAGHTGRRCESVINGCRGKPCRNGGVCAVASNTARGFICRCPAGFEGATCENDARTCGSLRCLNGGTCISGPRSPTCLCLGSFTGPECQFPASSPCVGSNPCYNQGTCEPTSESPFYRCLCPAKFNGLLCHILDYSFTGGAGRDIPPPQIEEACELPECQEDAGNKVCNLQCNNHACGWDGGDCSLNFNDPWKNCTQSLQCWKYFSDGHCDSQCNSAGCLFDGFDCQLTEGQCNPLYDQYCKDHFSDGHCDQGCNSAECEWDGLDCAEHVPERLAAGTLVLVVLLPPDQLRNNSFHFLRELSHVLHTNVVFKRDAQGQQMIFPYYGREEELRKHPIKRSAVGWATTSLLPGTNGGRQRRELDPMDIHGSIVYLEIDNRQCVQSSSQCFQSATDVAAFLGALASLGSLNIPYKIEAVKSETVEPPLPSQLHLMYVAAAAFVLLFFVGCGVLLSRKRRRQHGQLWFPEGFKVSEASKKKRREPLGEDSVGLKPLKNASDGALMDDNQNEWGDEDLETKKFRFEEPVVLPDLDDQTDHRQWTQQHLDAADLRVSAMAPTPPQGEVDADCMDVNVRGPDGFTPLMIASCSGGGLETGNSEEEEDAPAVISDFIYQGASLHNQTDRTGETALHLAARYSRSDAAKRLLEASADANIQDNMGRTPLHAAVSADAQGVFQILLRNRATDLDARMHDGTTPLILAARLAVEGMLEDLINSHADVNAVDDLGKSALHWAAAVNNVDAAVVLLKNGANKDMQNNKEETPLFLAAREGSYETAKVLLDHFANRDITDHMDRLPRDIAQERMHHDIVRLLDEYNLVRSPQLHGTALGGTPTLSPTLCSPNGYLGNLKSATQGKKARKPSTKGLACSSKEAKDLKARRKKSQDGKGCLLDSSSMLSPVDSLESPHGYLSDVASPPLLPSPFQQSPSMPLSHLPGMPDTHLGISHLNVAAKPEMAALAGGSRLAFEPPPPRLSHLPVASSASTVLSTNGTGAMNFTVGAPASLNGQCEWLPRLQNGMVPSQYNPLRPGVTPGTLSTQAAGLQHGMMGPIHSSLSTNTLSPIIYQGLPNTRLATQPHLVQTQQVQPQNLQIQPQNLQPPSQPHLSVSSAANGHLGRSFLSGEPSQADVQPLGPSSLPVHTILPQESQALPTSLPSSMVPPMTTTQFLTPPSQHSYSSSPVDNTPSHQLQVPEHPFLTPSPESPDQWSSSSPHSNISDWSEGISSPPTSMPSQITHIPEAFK

B1: alkaline phosphatase tagged Botch (Botch-N-AP) (natural protein, UniProt Q8R3J5 1-223, looked up)
chain: MKQESASQSTPPPSLSPAPSSAQPSWGDGDPQALWIFGYGSLVWKPDFAYSDSRVGFVRGYSRRFWQGDTFHRGSDKMPGRVVTLLEDREGCTWGVAYQVRGEQVNEALKYLNVREAVLGGYDTKEVTFYPQDTPDQPLTALAYVATPQNPGYLGPAPEEVIATQILACRGFSGHNLEYLLRLADFMQLCGPQAQDEHLEAIVDAVGTLLPCSYLPEQPLALT
Kd [1]: 3.3 nM
Kd [2]: 8.8 nM
Kd [3]: 3.3 nM
Kd [4]: 6.3 nM
